B1: 012517-I12 (protein)
chain: MALPVTALLLPLALLLHAARPLEGKPIPNPLLGLDSTGSGEDLKNVFPPEVAVFEPSKAEIAHTQKATLVCLATGFYPDHVELSWWVNGKEVHSGVCTDPQPLKEQPALNDSRYCLSSRLRVSATFWQNPRNHFRCQVQFYGLSENDEWTQDRAKPVTQIVSAEAWGRADCGITSASYHQGVLSATILYEILLGKATLYAVLVSALVLMAMVKRKDSRGRAKRSGSGATNFSLLKQAGDVEENPGPTSMALPVTALLLPLALLLHAARPDIQLTQSPSSLSASVGDRVTITCRASQGISSVLAWYQQKPGKAPKLLIYDASSLESGVPSRFSGSGSGTDFTLTISSLQPEDFATYYCQQFNSSITFGQGTKLEIKRTVAAGGGGSGGGGSGGGGSQVQLVQSGAEVKKPGSSVKVSCKASGGTFSDYAISWVRQAPGQGLEWMGRIIPILGVANYAQKFQGRVTITADKSTRTAYMELSSLRSEDTAVYYCARNWADAFDIWGQGTMVTVSSASTREQKLISEEDGSGIQNPDPAVYQLRDSKSSDKSVCLFTDFDSQTNVSQSKDSDVYITDKCVLDMRSMDFKSNSAVAWSNKSDFACANAFNNSIIPEDTFFPSSDVPCDVKLVEKSFETDTNLNFQNLSVIGFRILLLKVAGFNLLMTLRLWSSRAKRSGSGVKQTLNFDLLKLAGDVESNPGPSRGHMTEYKPTVRLATRDDVPRAVRTLAAAFADYPATRHTVDPDRHIERVTELQELFLTRVGLDIGKVWVADDGAAVAVWTTPESVEAGAVFAEIGPRMAELSGSRLAAQQQMEGLLAPHRPKEPAWFLATVGVSPDHQGKGLGSAVVLPGVEAAERAGVPAFLETSAPRNLPFYERLGFTVTADVEVPEGPRTWCMTRKPGA
B2: 022217-X03 (protein)
chain: MALPVTALLLPLALLLHAARPLEGKPIPNPLLGLDSTGSGEDLKNVFPPEVAVFEPSKAEIAHTQKATLVCLATGFYPDHVELSWWVNGKEVHSGVCTDPQPLKEQPALNDSRYCLSSRLRVSATFWQNPRNHFRCQVQFYGLSENDEWTQDRAKPVTQIVSAEAWGRADCGITSASYHQGVLSATILYEILLGKATLYAVLVSALVLMAMVKRKDSRGRAKRSGSGATNFSLLKQAGDVEENPGPTSMALPVTALLLPLALLLHAARPDIQMTQSPSSLSASVGDRVTINCKASQDINSYLSWFQQKPGKAPKTLIYRANRLVDGVPSRFSGSGSGQDYTLTISSLQPEDFATYYCLQYDEFPLTFGGGTKVEIKGGGGSGGGGSGGGGSQVQLVQSGAEVKKPGASVKVSCKASGYTFTNYDINWVRQAPGQGLEWIGWIYPGDGSTKYNEKFKAKATLTADTSTSTAYMELRSLRSDDTAVYYCASGYEDAMDYWGQGTTVTVSSTREQKLISEEDGSGIQNPDPAVYQLRDSKSSDKSVCLFTDFDSQTNVSQSKDSDVYITDKCVLDMRSMDFKSNSAVAWSNKSDFACANAFNNSIIPEDTFFPSSDVPCDVKLVEKSFETDTNLNFQNLSVIGFRILLLKVAGFNLLMTLRLWSSRAKRSGSGVKQTLNFDLLKLAGDVESNPGPSRGHMTEYKPTVRLATRDDVPRAVRTLAAAFADYPATRHTVDPDRHIERVTELQELFLTRVGLDIGKVWVADDGAAVAVWTTPESVEAGAVFAEIGPRMAELSGSRLAAQQQMEGLLAPHRPKEPAWFLATVGVSPDHQGKGLGSAVVLPGVEAAERAGVPAFLETSAPRNLPFYERLGFTVTADVEVPEGPRTWCMTRKPGA
B3: 090116-F02 (protein)
chain: MALPVTALLLPLALLLHAARPLEGKPIPNPLLGLDSTGSGEDLKNVFPPEVAVFEPSKAEIAHTQKATLVCLATGFYPDHVELSWWVNGKEVHSGVCTDPQPLKEQPALNDSRYCLSSRLRVSATFWQNPRNHFRCQVQFYGLSENDEWTQDRAKPVTQIVSAEAWGRADCGITSASYHQGVLSATILYEILLGKATLYAVLVSALVLMAMVKRKDSRGRAKRSGSGATNFSLLKQAGDVEENPGPTSMALPVTALLLPLALLLHAARPDDIVMTQSPDSLTVSLGERTTINCKSSQSVLDSSKNKNSLAWYQQKPGQPPKLLLSWASTRESGIPDRFSGSGSGTDFTLTIDSLQPEDSATYYCQQSAHFPITFGQGTRLEIKGGGGSGGGGSGGGGSQVQLVQSGAEVKKPGASVKVSCKASGYTFTNYGMNWVKQAPGQGLKWMGWINTYTGEPTYADDFKGRVTMTSDTSTSTAYLELHNLRSDDTAVYYCARWSWSDGYYVYFDYWGQGTTVTVSSTREQKLISEEDGSGIQNPDPAVYQLRDSKSSDKSVCLFTDFDSQTNVSQSKDSDVYITDKCVLDMRSMDFKSNSAVAWSNKSDFACANAFNNSIIPEDTFFPSSDVPCDVKLVEKSFETDTNLNFQNLSVIGFRILLLKVAGFNLLMTLRLWSSRAKRSGSGVKQTLNFDLLKLAGDVESNPGPSRGHMTEYKPTVRLATRDDVPRAVRTLAAAFADYPATRHTVDPDRHIERVTELQELFLTRVGLDIGKVWVADDGAAVAVWTTPESVEAGAVFAEIGPRMAELSGSRLAAQQQMEGLLAPHRPKEPAWFLATVGVSPDHQGKGLGSAVVLPGVEAAERAGVPAFLETSAPRNLPFYERLGFTVTADVEVPEGPRTWCMTRKPGA
modifications: Synthetic Immune Receptor (SIR)
B4: 032216-W04 (protein)
chain: MALPVTALLLPLALLLHAARPDEIVLTQSPGSLAVSPGERVTMSCKSSQSVFFSSSQKNYLAWYQQIPGQSPRLLIYWASTRESGVPDRFTGSGSGTDFTLTISSVQPEDLAIYYCHQYLSSRTFGQGTKLEIKRLEGKPIPNPLLGLDSTGSGEDLKNVFPPEVAVFEPSKAEIAHTQKATLVCLATGFYPDHVELSWWVNGKEVHSGVCTDPQPLKEQPALNDSRYCLSSRLRVSATFWQNPRNHFRCQVQFYGLSENDEWTQDRAKPVTQIVSAEAWGRADCGITSASYHQGVLSATILYEILLGKATLYAVLVSALVLMAMVKRKDSRGRAKRSGSGATNFSLLKQAGDVEENPGPTSMDWIWRILFLVGAATGAHSFEQVQLQQPGAEVVKPGASVKMSCKASGYTFTSYYIHWIKQTPGQGLEWVGVIYPGNDDISYNQKFQGKATLTADKSSTTAYMQLSSLTSEDSAVYYCAREVRLRYFDVWGQGTTVTVSSTREQKLISEEDGSGIQNPDPAVYQLRDSKSSDKSVCLFTDFDSQTNVSQSKDSDVYITDKCVLDMRSMDFKSNSAVAWSNKSDFACANAFNNSIIPEDTFFPSSDVPCDVKLVEKSFETDTNLNFQNLSVIGFRILLLKVAGFNLLMTLRLWSSRAKRSGSGVKQTLNFDLLKLAGDVESNPGPSRGHMTEYKPTVRLATRDDVPRAVRTLAAAFADYPATRHTVDPDRHIERVTELQELFLTRVGLDIGKVWVADDGAAVAVWTTPESVEAGAVFAEIGPRMAELSGSRLAAQQQMEGLLAPHRPKEPAWFLATVGVSPDHQGKGLGSAVVLPGVEAAERAGVPAFLETSAPRNLPFYERLGFTVTADVEVPEGPRTWCMTRKPGA
modifications: Polynucleotide encoding a Synthetic Immune Receptor (SIR)

System: target antigen-expressing cell line
Test: Jurkat NFAT-GFP assay, coculture with target cell lines expressing the respective target antigen (summary Table 10A)
Type: cell-based, human
Set-up: key: The signs +/−, +, 2+ etc. after the name of the cell lines indicate the relative degree of positivity on the Jurkat-NFAT-GFP assay as measured by the % GFP positive cells; +: relative degree of positivity on the Jurkat-NFAT-GFP assay as measured by the % GFP positive cells; 2+: relative degree of positivity on the Jurkat-NFAT-GFP assay as measured by the % GFP positive cells
Conditions: relative % GFP positive cells; for NFAT-GFP ASSAY Positive Cell lines: HL60: SIR-expressing Jurkat-NFAT-GFP cells cocultured with HL60
Summary of the method: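 Readout is % GFP+ cells by FACS, graded +/− to 2+ relative to parental reporter cells. Jurkat-NFAT-GFP cells stably transduced with SIR constructs (puromycin-selected) were mixed with target-antigen-expressing cell lines at roughly 1:2 effector:target and cocultured ~4–18 h.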

Row | Molecule | NFAT-GFP ASSAY Positive Cell lines: HL60 | NFAT-GFP ASSAY Positive Cell lines: U266 (SIR-expressing Jurkat-NFAT-GFP cells cocultured with U266)
1 | B1 | HL60 (+/−) | –
2 | B2 | – | U266 (+/−)
3 | B3 | HL60 (+/−) | –
4 | B4 | HL60 (+), MOLM13 | –
